{
  "source": "IntAct's records for PubMed 18498651",
  "parents": {"B1": {"name": "Double-stranded RNA-binding protein Staufen homolog 1 (Homo sapiens), O95793-2 (parent)", "chain": "MKLGKKPMYKPVDPYSRMQSTYNYNMRGGAYPPRYFYPFPVPPLLYQVELSVGGQQFNGKGKTRQAAKHDAAAKALRILQNEPLPERLEVNGRESEEENLNKSEISQVFEIALKRNLPVNFEVARESGPPHMKNFVTKVSVGEFVGEGEGKSKKISKKNAAIAVLEELKKLPPLPAVERVKPRIKKKTKPIVKPQTSPEYGQGINPISRLAQIQQAKKEKEPEYTLLTERGLPRRREFVMQVKVGNHTAEGTGTNKKVAKRNAAENMLEILGFKVPQAQPTKPALKSEEKTPIKKPGDGRKVTFFEPGSGDENGTSNKEDEFRMPYLSHQQLPAGILPMVPEVAQAVGVSQGHHTKDFTRAAPNPAKATVTAMIARELLYGGTSPTAETILKNNISSGHVPHGPLTRPSEQLDYLSRVQGFQVEYKDFPKNNKNEFVSLINCSSQPPLISHGIGKDVESCHDMAALNILKLLSELDQQSTEMPRTGNGPMSVCGRC"}},
  "data": [
    {"variants_of": "B1", "conditions": "with gag_hv1h2 gag", "values": [
      {"variant": "MKLGKKPMYKPVDPYSRMQSTYNYNMRGGAYPPRYFYPFPVPPLLYQVELSVGGQQFNGKGKTRQAAKHDAAAKALRILQNEPLPERLEVNGRESEEENLNKSEISQVFEIALKRNLPVNFEVARESGPPHMKNAVTKVSVGEFVGEGEGKSKKISKKNAAIAVLEELKKLPPLPAVERVKPRIKKKTKPIVKPQTSPEYGQGINPISRLAQIQQAKKEKEPEYTLLTERGLPRRREFVMQVKVGNHTAEGTGTNKKVAKRNAAENMLEILGFKVPQAQPTKPALKSEEKTPIKKPGDGRKVTFFEPGSGDENGTSNKEDEFRMPYLSHQQLPAGILPMVPEVAQAVGVSQGHHTKDFTRAAPNPAKATVTAMIARELLYGGTSPTAETILKNNISSGHVPHGPLTRPSEQLDYLSRVQGFQVEYKDFPKNNKNEFVSLINCSSQPPLISHGIGKDVESCHDMAALNILKLLSELDQQSTEMPRTGNGPMSVCGRC", "note": "[F135A]", "effect of a mutation on the interaction": "disrupting interaction"}
    ]}
  ]
}
